In paper PMC2600743 (The Journal of Cell Biology, 2008):

T1: MBD-ankB (membrane-binding domain of human 220-kD ankyrin B, amino acids 1–957) (human, UniProt Q01484-2 1-957)
T1 sequence (looked up): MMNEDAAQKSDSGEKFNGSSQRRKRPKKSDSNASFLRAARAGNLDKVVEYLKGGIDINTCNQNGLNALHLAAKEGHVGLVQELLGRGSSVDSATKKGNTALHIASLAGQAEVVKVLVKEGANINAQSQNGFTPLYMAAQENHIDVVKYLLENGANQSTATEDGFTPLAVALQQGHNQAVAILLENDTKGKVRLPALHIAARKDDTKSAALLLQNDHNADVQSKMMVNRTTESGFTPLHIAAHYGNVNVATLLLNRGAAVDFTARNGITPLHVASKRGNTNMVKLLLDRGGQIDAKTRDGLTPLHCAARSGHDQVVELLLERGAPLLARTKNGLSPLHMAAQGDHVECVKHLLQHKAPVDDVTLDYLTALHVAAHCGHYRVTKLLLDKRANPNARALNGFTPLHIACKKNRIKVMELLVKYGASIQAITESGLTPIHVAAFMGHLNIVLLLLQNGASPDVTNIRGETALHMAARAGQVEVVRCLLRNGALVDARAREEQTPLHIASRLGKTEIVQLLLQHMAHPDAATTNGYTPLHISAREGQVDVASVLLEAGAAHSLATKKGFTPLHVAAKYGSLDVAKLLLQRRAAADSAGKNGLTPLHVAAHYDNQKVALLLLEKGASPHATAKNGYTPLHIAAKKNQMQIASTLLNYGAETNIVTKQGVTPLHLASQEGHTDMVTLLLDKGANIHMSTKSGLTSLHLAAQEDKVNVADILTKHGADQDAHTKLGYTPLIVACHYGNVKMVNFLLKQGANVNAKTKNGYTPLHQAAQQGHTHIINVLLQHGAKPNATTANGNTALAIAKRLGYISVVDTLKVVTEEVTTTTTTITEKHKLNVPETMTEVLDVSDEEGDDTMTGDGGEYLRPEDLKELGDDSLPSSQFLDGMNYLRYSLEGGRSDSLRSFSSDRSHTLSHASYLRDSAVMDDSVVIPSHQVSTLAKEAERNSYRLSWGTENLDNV

T2: MBD-ankG (membrane-binding domain of rat 270-kD ankyrin G, amino acids 1–981) (rat, UniProt O70511 1-981)
T2 sequence (looked up): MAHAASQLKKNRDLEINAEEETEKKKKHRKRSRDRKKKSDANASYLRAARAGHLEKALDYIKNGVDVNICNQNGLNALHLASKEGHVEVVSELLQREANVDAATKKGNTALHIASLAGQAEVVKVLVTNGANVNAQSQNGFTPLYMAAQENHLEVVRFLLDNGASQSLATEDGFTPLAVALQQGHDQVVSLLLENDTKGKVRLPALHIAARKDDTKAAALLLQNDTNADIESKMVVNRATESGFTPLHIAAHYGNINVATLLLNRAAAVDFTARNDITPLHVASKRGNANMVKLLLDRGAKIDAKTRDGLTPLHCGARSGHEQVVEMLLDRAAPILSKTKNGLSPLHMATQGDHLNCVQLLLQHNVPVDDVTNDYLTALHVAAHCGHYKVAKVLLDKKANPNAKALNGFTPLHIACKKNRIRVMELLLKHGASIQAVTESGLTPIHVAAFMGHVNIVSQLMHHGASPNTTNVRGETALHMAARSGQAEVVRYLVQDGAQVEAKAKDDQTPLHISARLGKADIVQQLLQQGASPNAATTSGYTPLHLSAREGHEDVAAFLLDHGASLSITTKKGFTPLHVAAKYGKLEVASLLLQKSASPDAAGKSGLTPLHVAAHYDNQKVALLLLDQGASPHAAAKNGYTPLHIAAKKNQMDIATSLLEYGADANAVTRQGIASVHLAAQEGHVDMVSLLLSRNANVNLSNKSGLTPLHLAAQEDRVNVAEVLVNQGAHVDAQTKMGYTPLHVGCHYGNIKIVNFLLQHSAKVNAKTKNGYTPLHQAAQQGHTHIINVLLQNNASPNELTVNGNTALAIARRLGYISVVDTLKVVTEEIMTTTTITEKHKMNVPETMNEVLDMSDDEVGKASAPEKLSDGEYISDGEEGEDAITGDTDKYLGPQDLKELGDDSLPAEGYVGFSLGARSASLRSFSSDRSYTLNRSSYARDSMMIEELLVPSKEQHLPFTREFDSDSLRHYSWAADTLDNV


Tests used:
[1] = target: MBD-ank (Table II; ankB or ankG not said) membrane-binding domain; test: SPR, GST-Nav1.2 captured on chip; settings: reference: wild type, CK2-treated; sites S1124,S1126
[2] = target: ankyrin B (MBD-ankB) membrane-binding domain, 1–957 (UniProt Q01484); test: SPR, GST-Nav1.2 captured on chip; settings: reference: untreated immobilized fragment; sites S1112,S1123,S1124,S1126
[3] = target: ankyrin G (MBD-ankG) membrane-binding domain, 1–981 (UniProt O70511); test: SPR, GST-Nav1.2 captured on chip; settings: reference: untreated immobilized fragment; sites S1112,S1123,S1124,S1126
[4] = target: T1, MBD-ankB (membrane-binding domain of …); test: SPR
[5] = target: T2, MBD-ankG (membrane-binding domain of …); test: SPR

| Molecule | KD [2] | Kd [4] | further results |
| --- | --- | --- | --- |
| Nav1.2 1,080–1,203 (from UniProt P04775) S1124-26A, CK2-treated | – | – | KD [1]: weaker; reference 1.2 10−9 |
| Nav1.2 989–1,133 (from UniProt P04775) phosphorylated on chip with CK2 | stronger; reference 1.3 ± 0.2 × 10−6 | – | – |

More lines, main results first:

| KD [2] | Kd [4] | Molecule | further results |
| --- | --- | --- | --- |
| stronger; reference 1.2 ± 0.4 × 10−6 | – | Nav1.2 1,080–1,203 (from UniProt P04775) phosphorylated on chip with CK2 | KD [3]: stronger; reference 1.7 ± 0.5 × 10−6 |
| – | 1.3 µM | GST-Nav1.2 989–1,133 (domain or fragment, UniProt P04775 989-1133, looked up) DNLAATDDDNEMNNLQIAVGRMQKGIDFVKRKIREFIQKAFVRKQKALDEIKPLEDLNNKKDSCISNHTTIEIGKDLNYLKDGNGTTSGIGSSVEKYVVDESDYMSFINNPSLTVTVPIALGESDFENLNTEEFSSESDMEESKE | – |
| – | 1.2 µM | GST-Nav1.2 1,080–1,203 (domain or fragment, UniProt P04775 1080-1203, looked up) SSVEKYVVDESDYMSFINNPSLTVTVPIALGESDFENLNTEEFSSESDMEESKEKLNATSSSEGSTVDIGAPAEGEQPEAEPEESLEPEACFTEDCVRKFKCCQISIEEGKGKLWWNLRKTCYK | Kd [5]: 1.7 µM |
